Tested on: CD8+ T cells
Assay: In vitro T-cell priming assay (immunogenicity) with artificial APCs loaded with peptide/MHC complexes and anti-CD28
Assay type: cell-based, human
Conditions: CD8+ T cells of healthy HLA-A*02 donors, multimer staining, Table 13a
From the text: In order to obtain information regarding the immunogenicity of the TUMAPs of the present invention, the inventors performed investigations using an in vitro T-cell priming assay based on repeated stimulations of CD8+ T cells with artificial antigen presenting cells (aAPCs) loaded with peptide/MHC complexes and anti-CD28 antibody.
In order to perform in vitro stimulations by artificial antigen presenting cells loaded with peptide-MHC complex (pMHC) and anti-CD28 antibody, the inventors first isolated CD8+ T cells from fresh HLA-A*02 leukapheresis products via positive selection using CD8 microbeads (Miltenyi Biotec, Bergisch-Gladbach, Germany) of healthy donors obtained from the University clinics Mannheim, Germany, after informed consent.
PBMCs and isolated CD8+ lymphocytes were incubated in T-cell medium (TCM) until use consisting of RPMI-Glutamax (Invitrogen, Karlsruhe, Germany) supplemented with 10% heat inactivated human AB serum (PAN-Biotech, Aidenbach, Germany), 100 U/ml Penicillin/100 μg/ml Streptomycin (Cambrex, Cologne, Germany), 1 mM sodium pyruvate (CC Pro, Oberdorla, Germany), 20 μg/ml Gentamycin (Cambrex). 2.5 ng/ml IL-7 (PromoCell, Heidelberg, Germany) and 10 U/ml IL-2 (Novartis Pharma, Nümberg, Germany) were also added to the TCM at this step.
Generation of pMHC/anti-CD28 coated beads, T-cell stimulations and readout was performed in a highly defined in vitro system using four different pMHC molecules per stimulation condition and 8 different pMHC molecules per readout condition.
The purified co-stimulatory mouse IgG2a anti human CD28 Ab 9.3 (Jung et al., 1987) was chemically biotinylated using Sulfo-N-hydroxysuccinimidobiotin as recommended by the manufacturer (Perbio, Bonn, Germany). Beads used were 5.6 μm diameter streptavidin coated polystyrene particles (Bangs Laboratories, Illinois, USA).
800.000 beads/200 μl were coated in 96-well plates in the presence of 4×12.5 ng different biotin-pMHC, washed and 600 ng biotin anti-CD28 were added subsequently in a volume of 200 μl. Stimulations were initiated in 96-well plates by co-incubating […] CD8+ T cells with 2×10^5 washed coated beads in 200 μl TCM supplemented with 5 ng/ml IL-12 (PromoCell) for 3 days at 37° C. Half of the medium was then exchanged by fresh TCM supplemented with 80 U/ml IL-2 and incubating was continued for 4 days at 37° C. This stimulation cycle was performed for a total of three times. For the pMHC multimer readout using 8 different pMHC molecules per condition, a two-dimensional combinatorial coding approach was used as previously described (Andersen et al., 2012) with minor modifications encompassing coupling to 5 different fluorochromes. Finally, multimeric analyses were performed by staining the cells with Live/dead near IR dye (Invitrogen, Karlsruhe, Germany), CD8-FITC antibody clone SK1 (BD, Heidelberg, Germany) and fluorescent pMHC multimers. For analysis, a BD LSRII SORP cytometer equipped with appropriate lasers and filters was used. Peptide specific cells were calculated as percentage of total CD8+ cells. Evaluation of multimeric analysis was done using the FlowJo software (Tree Star, Oreg., USA). In vitro priming of specific multimer+CD8+ lymphocytes was detected by comparing to negative control stimulations.

Substance | Wells positive [%]
103 (SLVSYLDKV; listed as Homo sapiens) [compound 103] | + (<20% = +)
102 (GLDPTQFRV; listed as Homo sapiens) [compound 102] | ++++ (>=70% = ++++)

Same assay, conditions: CD8+ T cells of healthy HLA-A*02 donors, multimer staining, Table 13b

Substance | Wells positive [%]
49 (FLWDPRDVVL; listed as Homo sapiens) [compound 49] | + (<20% = +)

Biological target: HLA-A*02:01 (Homo sapiens, UniProt P04439, D140Y/D185E/D98H/E176V/E277Q/G131W/G231S/I119V/I121R/I166T/I218V/L300P/L318F/N151K/N90K/P208A/P217A/Q86G/Q94H/R138H/R169H/T345S)
Assay: MHC binding assay (UV-ligand exchange, β2m ELISA)
Conditions: MHC class I binding score; peptide exchange yield, binding to HLA-A*02:01, UV-ligand exchange with β2m ELISA
From the text: Candidate peptides for T cell based therapies according to the present invention were further tested for their MHC binding capacity (affinity).
The individual peptide-MHC complexes were produced by UV-ligand exchange, where a UV-sensitive peptide is cleaved upon UV-irradiation and exchanged with the peptide of interest as analyzed. Only peptide candidates that can effectively bind and stabilize the peptide-receptive MHC molecules prevent dissociation of the MHC complexes. To determine the yield of the exchange reaction, an ELISA was performed based on the detection of the light chain (β2m) of stabilized MHC complexes. The assay was performed as generally described in Rodenko et al. (Rodenko et al., 2006).
96 well MAXISorp plates (NUNC) were coated over night with 2 ug/ml streptavidin in PBS at room temperature, washed 4× and blocked for 1h at 37° C. in 2% BSA containing blocking buffer. Refolded HLA-A*02:01/MLA-001 monomers served as standards, covering the range of 15-500 ng/ml. Peptide-MHC monomers of the UV-exchange reaction were diluted 100 fold in blocking buffer. Samples were incubated for 1 h at 37° C., washed four times, incubated with 2 ug/ml HRP conjugated anti-β2m for 1h at 37° C., washed again and detected with TMB solution that is stopped with […]. Absorption was measured at 450 nm. Candidate peptides that show a high exchange yield (preferably higher than 50%, most preferred higher than 75%) are generally preferred for a generation and production of antibodies or fragments thereof, and/or T cell receptors or fragments thereof, as they show sufficient avidity to the MHC molecules and prevent dissociation of the MHC complexes.

Peptide exchange | Substance
++++ (≥75% = ++++) | 49 (FLWDPRDVVL; listed as Homo sapiens) [compound 49]
++++ (≥75% = ++++) | 59 (LAASTTFLGV; listed as Homo sapiens) [compound 59]
++++ (≥75% = ++++) | 66 (ILNELLNSI; listed as Homo sapiens) [compound 66]
++++ (≥75% = ++++) | 57 (YVLMTSLLL; listed as Homo sapiens) [compound 57]
++ (≥20% = ++) | 73 (STTIINLIL; listed as Homo sapiens) [compound 73]
++++ (≥75% = ++++) | 53 (TISISLSSV; listed as Homo sapiens) [compound 53]
++++ (≥75% = ++++) | 100 (SLGPPPVGV; listed as Homo sapiens) [compound 100]
++++ (≥75% = ++++) | 70 (LLLQIEPAA; listed as Homo sapiens) [compound 70]
++++ (≥75% = ++++) | 99 (ALMDGSESRFFV; listed as Homo sapiens) [compound 99]
++ (≥20% = ++) | 58 (MIISHRALEL; listed as Homo sapiens) [compound 58]
++ (≥20% = ++) | 61 (VLPWQPLLL; listed as Homo sapiens) [compound 61]
++++ (≥75% = ++++) | 54 (GLSPDQVFL; listed as Homo sapiens) [compound 54]
++++ (≥75% = ++++) | 62 (SLLGKPGLTI; listed as Homo sapiens) [compound 62]
+++ (≥50 = +++) | 56 (IITNLIVNI; listed as Homo sapiens) [compound 56]
++++ (≥75% = ++++) | 69 (LLCPVVLQL; listed as Homo sapiens) [compound 69]
++++ (≥75% = ++++) | 71 (WLMPVMPAL; listed as Homo sapiens) [compound 71]
++ (≥20% = ++) | 67 (ALKELMGPA; listed as Homo sapiens) [compound 67]
+++ (≥50 = +++) | 55 (MVQQEKLFV; listed as Homo sapiens) [compound 55]
++++ (≥75% = ++++) | 98 (SLMEVTHDL; listed as Homo sapiens) [compound 98]
++++ (≥75% = ++++) | 45 (ALYHQSPLL; listed as Homo sapiens) [compound 45]
++ (≥20% = ++) | 52 (LAFVSHVLI; listed as Homo sapiens) [compound 52]
++ (≥20% = ++) | 63 (LSFKRSLSI; listed as Homo sapiens) [compound 63]
++++ (≥75% = ++++) | 97 (GLIDDKGTIKL; listed as Homo sapiens) [compound 97]
+ (≥10% = +) | 64 (LLLALRLSL; listed as Homo sapiens) [compound 64]
++++ (≥75% = ++++) | 60 (LLLATLENL; listed as Homo sapiens) [compound 60]

The next lines start with the substance.

Substance | Peptide exchange
43 (AIWSTILIA; listed as Homo sapiens) [compound 43] | ++ (≥20% = ++)
9 (FLQEGDLISV; listed as Homo sapiens) [compound 9] | ++++ (≥75% = ++++)
17 (VLWDLRPSSLI; listed as Homo sapiens) [compound 17] | ++++ (≥75% = ++++)
42 (WITPVIPAL; listed as Homo sapiens) [compound 42] | ++++ (≥75% = ++++)
10 (SLLDKLSGI; listed as Homo sapiens) [compound 10] | ++++ (≥75% = ++++)
24 (TLTSLNILL; listed as Homo sapiens) [compound 24] | ++++ (≥75% = ++++)
15 (NLVMPLLHI; listed as Homo sapiens) [compound 15] | ++ (≥20% = ++)
11 (ALLPHAPEAV; listed as Homo sapiens) [compound 11] | +++ (≥50 = +++)
14 (LLIEVSEEL; listed as Homo sapiens) [compound 14] | ++++ (≥75% = ++++)
8 (ILQSLVPAA; listed as Homo sapiens) [compound 8] | ++++ (≥75% = ++++)
23 (GLEVLDALL; listed as Homo sapiens) [compound 23] | ++ (≥20% = ++)
21 (FVFISPSFL; listed as Homo sapiens) [compound 21] | +++ (≥50 = +++)
25 (ISVLNLSAI; listed as Homo sapiens) [compound 25] | ++ (≥20% = ++)
32 (VLSVSAVLGA; listed as Homo sapiens) [compound 32] | +++ (≥50 = +++)
27 (IAAGVPNTDA; listed as Homo sapiens) [compound 27] | ++ (≥20% = ++)
20 (VLISLPGKV; listed as Homo sapiens) [compound 20] | ++ (≥20% = ++)
41 (LMASEGIWESSL; listed as Homo sapiens) [compound 41] | +++ (≥50 = +++)
44 (WLIPRQLAAA; listed as Homo sapiens) [compound 44] | ++++ (≥75% = ++++)
34 (LLNVEPAGA; listed as Homo sapiens) [compound 34] | ++++ (≥75% = ++++)
39 (YIYEDEVRL; listed as Homo sapiens) [compound 39] | ++++ (≥75% = ++++)
35 (VLLNSNYPV; listed as Homo sapiens) [compound 35] | ++++ (≥75% = ++++)
28 (SQLEKPETA; listed as Homo sapiens) [compound 28] | +++ (≥50 = +++)
30 (LLRLTLLPL; listed as Homo sapiens) [compound 30] | ++ (≥20% = ++)
12 (HLDSMNVSI; listed as Homo sapiens) [compound 12] | ++++ (≥75% = ++++)
16 (ALLDAEQSPVAL; listed as Homo sapiens) [compound 16] | ++++ (≥75% = ++++)
5 (LVWEVVESV; listed as Homo sapiens) [compound 5] | ++++ (≥75% = ++++)
22 (SLYDVPVGA; listed as Homo sapiens) [compound 22] | ++++ (≥75% = ++++)
